Assay results taken from publication PMC4871238 (Nature structural & molecular biology, 2015).

B1: Dictyostelium discoideum eIF6 (eukaryotic initiation factor 6), endogenous (natural protein)
chain: not shown
B2: Dictyostelium discoideum ribosomal protein eL24 (L24) (natural protein, UniProt Q54VN6 1-127, looked up)
chain: MKTSLCNYSEFKIYPARGMKFVRGDSKVFHFINTKVESLFFRKINPRDIRWSMVYRRIYKNTTTDVSAKKKARKTKKVERNIVGASLEVIQQKRAQKPEVKQAAAEQAKREIKEKKKAAAKKAAPKK
B3: Dictyostelium discoideum ribosomal protein uL11 (L12) (natural protein)
chain: not shown
B4: Dictyostelium discoideum ribosomal protein uL16 (L10) (natural protein, UniProt Q54J69 1-217, looked up)
chain: MGRRPARCYRYCKNKPYIKSRYCRGVPDAKIRIFDLGRKKASTDEFPLCVHLISLEKEQLSSEAIEAGRISCNKYISKTGGKDSFHMRVRVHPWHVLRINKMLSCAGADRLQTGMRGAFGKPMGTVARVNIGQIIFSIRTRDNMLANVVEALRRSSYKFPGRQKIVVSKKWGFTAYNREAYQKLKADGRLMNDGANVKVITNHGTLAQYAKDIAAAN
B5: Dictyostelium discoideum ribosomal protein uL14 (L23) (natural protein)
chain: not shown

Assays:
Test in all cases: cryo-EM structure
[1] = target: Dictyostelium discoideum ribosomal protein uL3 (L3) (Dictyostelium discoideum, UniProt P34113 1-398)
Sequence of Dictyostelium discoideum ribosomal protein uL3 (L3) (P34113 whole entry): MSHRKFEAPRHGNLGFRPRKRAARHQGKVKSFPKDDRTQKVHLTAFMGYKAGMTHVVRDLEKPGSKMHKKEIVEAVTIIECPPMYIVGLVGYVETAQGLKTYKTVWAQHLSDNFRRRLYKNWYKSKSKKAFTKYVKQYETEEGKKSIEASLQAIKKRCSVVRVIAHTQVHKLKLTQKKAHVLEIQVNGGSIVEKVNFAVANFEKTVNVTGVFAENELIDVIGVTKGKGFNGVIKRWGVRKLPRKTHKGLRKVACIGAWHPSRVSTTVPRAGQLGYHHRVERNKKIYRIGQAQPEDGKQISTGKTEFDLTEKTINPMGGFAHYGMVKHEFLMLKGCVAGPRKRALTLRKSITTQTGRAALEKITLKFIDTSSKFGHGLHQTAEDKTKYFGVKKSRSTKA

[2] = target: B1
[3] = target: T1, human SBDS (Shwachman-Bodian-Diamond syndrome protein) (human, UniProt Q9Y3A5 1-250)
T1 sequence: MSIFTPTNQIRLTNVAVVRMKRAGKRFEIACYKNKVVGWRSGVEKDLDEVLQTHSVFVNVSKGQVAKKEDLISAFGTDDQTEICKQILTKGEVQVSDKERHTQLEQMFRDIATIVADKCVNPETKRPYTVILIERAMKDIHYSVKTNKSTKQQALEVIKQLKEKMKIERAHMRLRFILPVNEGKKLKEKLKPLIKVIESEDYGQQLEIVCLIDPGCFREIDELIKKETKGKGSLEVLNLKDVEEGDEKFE

| Binder | binding result [2] | binding result [3] | further results |
| --- | --- | --- | --- |
| B1 |  |  | binding result [1]: binds |
| B2 | binds |  |  |
| B3 |  | binds |  |
| B4 |  | binds |  |
| B5 | binds |  |  |
